Measured values: patent US10864251B2, “Peptides of syndecan-1 for inhibiting angiogenesis” (Wisconsin Alumni Research Foundation, priority 2006, dated 2020)
Like-named read-outs stand apart in the source and are kept apart here. Where no end group is shown, it is not given here.

What was measured:
[1] = test system: human dermal microvascular endothelial cells (HMEC-1); format: cell-based
Procedure: FIGS. 6A-6H—Inhibition of B82L fibroblast and HMEC-1 cell attachment and spreading on VN by synstatin82-130. B82L fibroblasts, which rely on the αvβ5 integrin for attachment to VN, and human dermal microvascular endothelial cells, which rely on both the αvβ3 and αvβ5 integrins for attachment to VN, were plated in the absence of peptide (FIGS. 6A, 6E) or in the presence of 0.1 (FIGS. 6B, 6F), 0.3 (FIGS. 6C, 6G) or 1 μM (FIGS. 6D, 6H) synstatin82-130 for 2 hr and processed as described in FIG. 2.
FIGS. 10A-10D—Dependence of HMEC cell attachment and spreading on integrin activation by Sdc1 and its inhibition by SSTN. (FIG. 10A) HMECs were plated for 2 hr either on Sdc1-specific antibody B-B4 to engage Sdc1 or on VN (10 μg/ml coating concentration) to engage the αvβ3 and αvβ5 integrins. Blocking antibodies LM609 (10 μg/ml, specific for αvβ3) and P1F6 (10 μg/ml, specific for αvβ5), SSTN (0.5 μM) or recombinant mouse Sdc1 ectodomain (mS1ED, 5 μM) were added. The ligand mimetic antibody WOW1 was used to detect activated αvβ3 integrin on cells plated on B-B4. (FIG. 10B) HMECs were treated with siRNA oligo specific for human Sdc1 for 48 hr prior to plating on VN. Sdc1 expression was quantified by flow cytometry using human Sdc1-specific mAb B-B4 or a control mouse IgG. (FIG. 10C-10D) The percentage of cell attaching or attaching and spreading was quantified for HMECs, HAEC and MAECs plated on VN for 24 hr in the presence of mS1ED or SSTN, or after siRNA silencing of Sdc1 expression in the presence of mAb LM609 to block αvβ3 integrin, P1F6 to block αvβ5 integrin, or both antibodies.
FIG. 14—Activity of SSTN peptides. A diagram of SSTN82-130 used in our experiments is shown. The gray letters designate amino acids that are identical or highly conserved across species (mouse, human, rat, hamster). Shorter peptides have been tested using HMEC-1 endothelial cells for inhibition of […] mediated cell attachment and spreading in comparison to SSTN82-130.
Cell adhesion and spreading assays were performed with modification to the previous procedures (Lebakken and Rapraeger, 1996. Briefly, human plasma vitronectin or fibronectin at 10-30 μg/ml were applied to nitrocellulose-coated ten well slides (Erie Scientific) and incubated for 1-2 h at 37° C. Slides were blocked with 1.0% heat-denatured bovine serum albumin for a minimum of 30 min at 37° C. Cells were detached from the substratum using 5 mM EDTA in Tris-buffered saline and resuspended in HEPES-buffered culture medium containing 0.1% heat-denatured BSA. Cells were plated at a density of 15,000 cells per well and allowed to attach and spread for 2 h prior to fixation in 4% paraformaldehyde in CMF-PBS. For fluorescence microscopy, fixed cells were permeabilized in 0.2% Triton X-100, labeled with rhodamine-conjugated phalloidin and analyzed using fluorescence microscopy. For testing inhibition by recombinant mScd-1ED and synstatin82-130, cells were pre-incubated 10 min before plating in the presence of the inhibitor. […] LM609 was used as a specific block to αvβ3 and P1F6 was used as a specific blocker of αvβ5.
Finally, the inventors have examined HMEC-1 cells, which are immortalized human dermal microvascular endothelial cells. Microvascular endothelial cells are regarded as being the main source of endothelial cells that carry out angiogenesis in vivo. The HMEC-1 cells grown in serum-containing culture medium express Sdc1 (as noted earlier) and also express active αvβ3 and αvβ5 integrins. […]

segments of mouse aorta = format: cell-based; details: for block of VEGF-induced outgrowth: 50 ng/ml VEGF, 7 days
Procedure: FIG. 12—SSTN blocks aortic ring angiogenesis. Aortic segments were explanted to collagen gels for 7 days in the presence of 50 ng/ml vascular endothelial cell growth factor (VEGF), or 30 ng/ml FGF-2 in the presence or absence of mS1ED or SSTN. Total outgrowth in quantified as the total length of all microvessels.
To test the activity of SSTN as an anti-angiogenic agent, the inventors turned to the in vitro aortic ring outgrowth assay and the in vivo corneal angiogenesis model. The aortic outgrowth assay allows quantification of microvessel outgrowth from segments of mouse aorta explanted to type I collagen gels. As was found when examining the mouse aortic endothelial cell line in culture, both syndecan-1 and the αvβ3 and αvβ5 integrins appear present even on the resting mouse aorta (FIG. 11A). In addition, microvessels growing out from the aortic explant over a 7 days period in response to FGF stain positively for syndecan-1, with appears co-expressed with the αvβ3 and αvβ5 integrins (FIG. 11B). To extend this finding of syndecan-1 expression in activated endothelium, the inventors also examined two models of mouse breast tumor formation. Tumors derived from wnt-1 overexpression in the mammary gland show a high degree of vascularization, identified as internal networks lined by a thick cell layer than stains intensely for syndecan-1 and for PECAM (CD31), indicative of activated endothelium (FIG. 11C). In fact, syndecan-1 expression in these cells swamps out the positive staining for syndecan-1 seen in the mammary epithelial cells, which are known to be positive for syndecan-1. These same cell layers as positive for αv, β3 and β5 integrin subunits. A similar finding is seen in tumors arising from overexpression of β-catenin (FIG. 11C). Although the vascularization is not as extensive as in the […] tumors, there are clear thickened layers of cells that are PECAM, syndecan-1 and αvβ3/αvβ5 integrin positive in these mammary tumors.
To test the effect of SSTN on microvessel outgrowth, segments of thoracic aorta were explanted to collagen gels in the presence of either 50 ng/ml vascular endothelial cell growth factor (VEGF) or 30 ng/ml FGF-2, and incubated in the presence of either recombinant mS1ED or SSTN. Although some vessel outgrowth is observed in the absence of exogenous angiogenic agents, likely due to VEGF release by supporting cells growing out from the explant, the outgrowth is greatly (≥10-fold) increased by FGF or VEGF (FIG. 12). Addition of recombinant mS1ED blocks VEGF-induced outgrowth by more than 70% at 10 μM, and greater than 95% at 30 μM. FGF induced outgrowth requires slightly higher inhibitory concentrations (approximately 30 μM mS1ED for 70% inhibition), which may trace to a difference in susceptibility of the two integrins, as VEGF signaling is reportedly coupled to αvβ5 integrin activation and FGF signaling is coupled to αvβ3 activation. […] It should be noted that the microvessel outgrowth is accompanied by the outgrowth of support cells, most likely smooth muscle cells and fibroblasts. […] Thus, the effects of SSTN are highly localized to the vascular endothelial cells.

## SNTETAFTSVLPAGEKPEEGEPVLHVEAEPGFTARDKEKEVTTRPRETV [synstatin82-130]
[1]; 6 h
  IC50: ~100 nM
Segments of mouse aorta
  IC50: 100 nM

B1: S1ED: recombinant mouse Sdc1 ectodomain (amino acids 18-251), expressed in bacteria as GST fusion or 6×His-tagged protein (protein)
chain: QPALPQIVAVNVPPEDQDGSGDDSDNFSGSGTGALPDTLSRQTPSTWKDVWLLTATPTAPEPTSSNTETAFTSVLPAGEKPEEGEPVLHVEAEPGFTARDKEKEVTTRPRETVQLPITQRASTVRVTTAQAAVTSHPHGGMQPGLHETSAPTAPGQPDHQPPRVEGGGTSVIKEVVEDGTANQLPAGEGSGEQDFTFETSGENTAVAAVEPGLRNQPPVDEGATGASQSLLDRK
modifications: left off: a dimerising Fc or GST
notes: recombinant mouse Sdc1 ectodomain (amino acids 18-251), expressed in bacteria as GST fusion or 6×His-tagged protein
[1]; HMEC-1, αvβ3 and αvβ5 integrin-dependent, read-out: IC50, spreading on VN
  IC50: 3000 to 10000 nM
[1]; HMECs on vitronectin, 1-3 μM
  reduction of cell spreading: 80-90%
[1]; HMECs, 5.0 μM
  spreading on vitronectin: blocks spreading as effectively as the combined antibody treatment
Segments of mouse aorta; 30 ng/ml FGF-2, 7 days
  concentration for 70% inhibition of FGF induced outgrowth: approximately 30 μM
Segments of mouse aorta; 10 μM
  block of VEGF-induced outgrowth: more than 70%
Segments of mouse aorta; 30 μM
  block of VEGF-induced outgrowth: greater than 95%
Segments of mouse aorta; aortic ring explants
  outgrowth of support cells (non-endothelial): unaffected
